Where a chain is given by its changes, count along the chain named. Numbers in names are those of the source.
Experiments:
human FcRn protein [1] = biological target: T1, human FcRn protein (human, UniProt P55899 24-297, limits assumed); experiment: SPR, Ab on Protein L chip, hFcRn in flow, pH 7.4
T1 construct: source and construct not described; also called hFcRn; FCGRT
Method: (§1) The interaction between human immunoglobulin proteins and FcRn is known to be affected by the pH of their environment solution. To test whether this pH-dependent interaction correlates with the quantity of antibody variants in the brain parenchyma after in vivo administration, the affinity of certain variants towards FcRn were screened at pH 6.0 and pH 7.4 on a Biacore T200 system (GE Healthcare). All experiments were conducted at 25′ C. Antibodies were expressed and purified using the Expi293 expression system as described in Example 1. Cells were transfected with a heavy chain comprising the variable region of the 04 antibody used in Example 2 [SEQ ID NO: 1] fused to a heavy chain region bearing the indicated substitution in Table 11 and a light chain from Ab6 [SEQ TD NO: 24]. Although the CH sequences listed in Table 11 include the terminal lysine (K447), this terminal lysine was truncated during the cloning process for each of these variants for the purposes of this experiment. Antibody proteins were captured at a flow rate of 10 μL/min on a Protein L chip to a surface density of approximately 100 RU. Experiments conducted at pH 7.4 were conducted in PBST (1.06 mMKH2PO4, 155.17 mM7NaCl, 2.97 mM 4Na2PO4-7H2O, and 0.005 Tween-20). […] The antibody-FcRn complex was allowed to dissociate for 20 s before the chip was regenerated with 10 mM glycine pH 1.7. On-rates (ka) and off-rates (kd) were estimated by the best fit to a one-to-one Langmuir binding model by simultaneous fitting of the association and dissociation sensograms. The dissociation constant (KD) for FcRn binding was then calculated as the ratio of the off rate to the on rate (kd/ka).

human FcRn protein [2] = biological target: T1, human FcRn protein; experiment: SPR, Ab on Protein L chip, hFcRn in flow, pH 6.0
Method: as §1

T1 sequence (P55899 24-297 limits assumed, chain 1 of 2): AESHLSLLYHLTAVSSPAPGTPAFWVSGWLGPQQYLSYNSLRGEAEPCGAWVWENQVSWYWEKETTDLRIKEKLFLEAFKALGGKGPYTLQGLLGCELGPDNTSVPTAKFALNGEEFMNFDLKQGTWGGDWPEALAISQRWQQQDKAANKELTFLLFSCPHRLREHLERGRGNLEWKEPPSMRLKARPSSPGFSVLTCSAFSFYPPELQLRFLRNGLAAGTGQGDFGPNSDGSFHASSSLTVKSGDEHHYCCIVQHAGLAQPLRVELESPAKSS
T1 sequence (chain, as listed by the source limits assumed, chain 2 of 2): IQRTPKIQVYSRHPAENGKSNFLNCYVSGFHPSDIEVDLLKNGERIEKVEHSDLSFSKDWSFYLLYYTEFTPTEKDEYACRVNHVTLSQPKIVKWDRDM

B1: hIgG1 M252Y/T256V/V308P/N434F, O4 VH with Ab6 light chain (antibody)
heavy: QVQLRQSGPGLVQPSQSLSITCTVSGFSLTSYGVHWFRQSPGKGLEWLGVIWSGGSTDYNAAFISRLSISKDNSKSQVFFKMNSLQANDTAIYYCARNRGRYNYYAMDYWGQGTSVTVSSASTKGPSVFPLAPSSKSTSGGTAALGCLVKDYFPEPVTVSWNSGALTSGVHTFPAVLQSSGLYSLSSVVTVPSSSLGTQTYICNVNHKPSNTKVDKKVEPKSCDKTHTCPPCPAPELLGGPSVFLFPPKPKDTLYISRVPEVTCVVVDVSHEDPEVKFNWYVDGVEVHNAKTKPREEQYNSTYRVVSVLTPLHQDWLNGKEYKCKVSNKALPAPIEKTISKAKGQPREPQVYTLPPSRDELTKNQVSLTCLVKGFYPSDIAVEWESNGQPENNYKTTPPVLDSDGSFFLYSKLTVDKSRWQQGNVFSCSVMHEALHFHYTQKSLSLSPG
light: not shown
notes: hIgG1
Kd (human FcRn protein [1]): 202 nM | koff (human FcRn protein [1]): 0.2 s⁻¹ | kon (human FcRn protein [1]): 977000 M⁻¹ s⁻¹ | Kd (human FcRn protein [2]): 1.25 nM | koff (human FcRn protein [2]): 0.00139 s⁻¹ | kon (human FcRn protein [2]): 1.11e+06 M⁻¹ s⁻¹

B2: hIgG1 M252Y/T256V/V308P/N434W, O4 VH with Ab6 light chain (antibody)
heavy: B1 heavy with F437W
light: not shown
notes: hIgG1
Kd (human FcRn protein [1]): 68.7 nM | koff (human FcRn protein [1]): 0.0327 s⁻¹ | kon (human FcRn protein [1]): 476000 M⁻¹ s⁻¹ | Kd (human FcRn protein [2]): 1.87 nM | koff (human FcRn protein [2]): 0.0024 s⁻¹ | kon (human FcRn protein [2]): 1.29e+06 M⁻¹ s⁻¹

B3: hIgG1 M252Y/V308P/N434Y, O4 VH with Ab6 light chain (antibody)
heavy: B1 heavy with V259T, F437Y
light: not shown
notes: hIgG1
Kd (human FcRn protein [1]): 10300 nM | koff (human FcRn protein [1]): 0.748 s⁻¹ | kon (human FcRn protein [1]): 72600 M⁻¹ s⁻¹ | Kd (human FcRn protein [2]): 1.51 nM | koff (human FcRn protein [2]): 0.00242 s⁻¹ | kon (human FcRn protein [2]): 1.61e+06 M⁻¹ s⁻¹

B4: hIgG1 P257A/V308P/M428L/N434Y, O4 VH with Ab6 light chain (antibody)
heavy: B1 heavy with Y255M, V259T, P260A, M431L, F437Y
light: not shown
notes: hIgG1
Kd (human FcRn protein [1]): 239 nM | koff (human FcRn protein [1]): 0.0545 s⁻¹ | kon (human FcRn protein [1]): 228000 M⁻¹ s⁻¹ | Kd (human FcRn protein [2]): 4.26 nM | koff (human FcRn protein [2]): 0.00706 s⁻¹ | kon (human FcRn protein [2]): 1.66e+06 M⁻¹ s⁻¹

B5: hIgG1 M252Y/T256Y/V308P/N434W, O4 VH with Ab6 light chain (antibody)
heavy: B1 heavy with V259Y, F437W
light: not shown
notes: hIgG1
Kd (human FcRn protein [1]): 202 nM | koff (human FcRn protein [1]): 0.08 s⁻¹ | kon (human FcRn protein [1]): 395000 M⁻¹ s⁻¹ | Kd (human FcRn protein [2]): 0.754 nM | koff (human FcRn protein [2]): 0.00112 s⁻¹ | kon (human FcRn protein [2]): 1.49e+06 M⁻¹ s⁻¹

B6: hIgG1 M252Y/V308P/N434W, O4 VH with Ab6 light chain (antibody)
heavy: B1 heavy with V259T, F437W
light: not shown
notes: hIgG1
Kd (human FcRn protein [1]): 730000 nM | koff (human FcRn protein [1]): 3.11 s⁻¹ | kon (human FcRn protein [1]): 4260 M⁻¹ s⁻¹ | Kd (human FcRn protein [2]): 0.767 nM | koff (human FcRn protein [2]): 0.00124 s⁻¹ | kon (human FcRn protein [2]): 1.62e+06 M⁻¹ s⁻¹

From US20240150447A1 (CEPHALON, published 2024)
